Measured values taken from patent publication US5840683A, “Peptides inhibiting the oncogenic action of p21 ras” (Innapharma, Inc., dated 1998).

T1: human oncogenic ras p21 (human)
T1 chain: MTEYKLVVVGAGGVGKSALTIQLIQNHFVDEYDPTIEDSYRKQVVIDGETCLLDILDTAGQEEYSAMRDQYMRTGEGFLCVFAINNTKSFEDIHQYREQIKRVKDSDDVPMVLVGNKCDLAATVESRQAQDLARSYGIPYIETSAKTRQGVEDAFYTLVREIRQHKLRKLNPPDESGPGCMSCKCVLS


Test system: oncogenic ras-p-21
Assay: not given
Conditions: background statement; cited from earlier work

Molecule | inhibition of oncogenic ras-p-21
N[C@@H](Cc1ccc(O)cn1)C(=O)O [Azatyrosine] | strongly inhibits

Target: T1, human oncogenic ras p21
Assay: cell-based or functional assay
Conditions: not given

Present Inhibition of ras-Induced Maturation [%] | Molecule
76 | IKRVKD [peptide of SEQ ID NO:1, Ile-Lys-Arg-Val-Lys-Asp]
28 | TIEDSYRKQVVID [peptide of SEQ ID NO:6, Thr-Ile-Glu-Asp-Ser-Tyr-Arg-Lys-Gln-Val-Val-Ile-Asp]
65 | CDLAART [peptide of SEQ ID NO:9, Cys-Asp-Leu-Ala-Ala-Arg-Thr]
22 | KRV [Lys-Arg-Val]
92 | GNKCDLAARTVE [peptide of SEQ ID NO:8, Gly-Asn-Lys-Cys-Asp-Leu-Ala-Ala-Arg-Thr-Val-Glu]

More lines, now with the values behind:

Molecule | Present Inhibition of ras-Induced Maturation [%]
DLAA [peptide of SEQ ID NO:4, Asp-Leu-Ala-Ala] | 22
YREQIKRVKDSDDVP [peptide of SEQ ID NO:7, Tyr-Arg-Glu-Gln-Ile-Lys-Arg-Val-Lys-Asp-Ser-Asp-Asp-Val-Pro] | 56
KCDLA [peptide of SEQ ID NO:2, Lys-Cys-Asp-Leu-Ala] | 38
VVI [Val-Val-Ile] | 34
